Measured values from article PMC2173515 (The Journal of Cell Biology, 2003).

Assays:
Assay in all cases: co-IP
[1] = target: T1, Vps27 (full-length, wild type) (yeast, UniProt P40343 1-622)
T1 sequence: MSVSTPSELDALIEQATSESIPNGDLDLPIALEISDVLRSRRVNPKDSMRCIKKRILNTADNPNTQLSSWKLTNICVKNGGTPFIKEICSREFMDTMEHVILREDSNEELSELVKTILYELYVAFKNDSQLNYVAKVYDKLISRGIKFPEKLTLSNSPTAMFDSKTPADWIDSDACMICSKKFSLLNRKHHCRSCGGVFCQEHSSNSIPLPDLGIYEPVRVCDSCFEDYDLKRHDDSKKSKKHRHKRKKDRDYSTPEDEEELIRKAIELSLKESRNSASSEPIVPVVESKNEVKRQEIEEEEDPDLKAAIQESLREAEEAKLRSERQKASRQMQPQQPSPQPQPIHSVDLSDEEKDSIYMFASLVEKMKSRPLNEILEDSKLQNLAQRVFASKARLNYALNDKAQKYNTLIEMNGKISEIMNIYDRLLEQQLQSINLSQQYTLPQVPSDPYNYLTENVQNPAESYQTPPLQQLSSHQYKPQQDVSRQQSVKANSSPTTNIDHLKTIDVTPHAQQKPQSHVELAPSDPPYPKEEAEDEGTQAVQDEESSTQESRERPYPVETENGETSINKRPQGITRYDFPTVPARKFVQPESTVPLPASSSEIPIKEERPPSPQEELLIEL

[2] = target: T2, Vps27 truncated at residue 617 (yeast, UniProt P40343 1-617)
T2 sequence: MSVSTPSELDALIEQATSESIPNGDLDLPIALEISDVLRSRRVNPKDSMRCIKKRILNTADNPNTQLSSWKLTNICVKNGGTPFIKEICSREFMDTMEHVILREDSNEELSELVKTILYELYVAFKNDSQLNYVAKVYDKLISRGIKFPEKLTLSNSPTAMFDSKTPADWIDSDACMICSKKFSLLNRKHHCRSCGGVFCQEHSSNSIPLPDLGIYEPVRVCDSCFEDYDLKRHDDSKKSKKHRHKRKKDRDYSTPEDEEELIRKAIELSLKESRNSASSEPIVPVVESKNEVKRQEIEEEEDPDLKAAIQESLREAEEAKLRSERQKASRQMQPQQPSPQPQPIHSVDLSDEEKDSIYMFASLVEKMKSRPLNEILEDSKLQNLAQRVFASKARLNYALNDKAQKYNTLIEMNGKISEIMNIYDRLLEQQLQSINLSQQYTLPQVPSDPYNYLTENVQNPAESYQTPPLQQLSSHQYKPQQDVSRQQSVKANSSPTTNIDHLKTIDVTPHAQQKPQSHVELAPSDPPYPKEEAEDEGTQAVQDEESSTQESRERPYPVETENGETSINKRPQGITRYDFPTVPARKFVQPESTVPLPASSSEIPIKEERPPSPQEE

[3] = target: T3, Vps27 truncated at residue 579 (yeast, UniProt P40343 1-579)
T3 sequence: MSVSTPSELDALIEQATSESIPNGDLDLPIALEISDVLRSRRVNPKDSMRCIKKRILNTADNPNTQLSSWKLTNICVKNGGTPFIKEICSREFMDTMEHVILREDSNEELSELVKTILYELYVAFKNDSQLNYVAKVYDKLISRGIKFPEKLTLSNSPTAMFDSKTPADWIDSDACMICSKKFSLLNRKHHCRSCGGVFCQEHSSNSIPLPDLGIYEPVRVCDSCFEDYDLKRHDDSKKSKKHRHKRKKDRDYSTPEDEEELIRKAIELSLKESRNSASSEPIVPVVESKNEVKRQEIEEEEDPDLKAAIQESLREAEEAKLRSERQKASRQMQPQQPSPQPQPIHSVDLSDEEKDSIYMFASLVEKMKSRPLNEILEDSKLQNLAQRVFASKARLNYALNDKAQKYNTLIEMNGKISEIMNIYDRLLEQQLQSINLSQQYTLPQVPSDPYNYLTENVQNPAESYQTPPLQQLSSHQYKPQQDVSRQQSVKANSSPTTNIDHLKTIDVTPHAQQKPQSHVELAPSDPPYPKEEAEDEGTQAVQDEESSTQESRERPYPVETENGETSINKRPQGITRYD

[4] = target: T4, Vps27 truncated at residue 524 (yeast, UniProt P40343 1-524)
T4 sequence: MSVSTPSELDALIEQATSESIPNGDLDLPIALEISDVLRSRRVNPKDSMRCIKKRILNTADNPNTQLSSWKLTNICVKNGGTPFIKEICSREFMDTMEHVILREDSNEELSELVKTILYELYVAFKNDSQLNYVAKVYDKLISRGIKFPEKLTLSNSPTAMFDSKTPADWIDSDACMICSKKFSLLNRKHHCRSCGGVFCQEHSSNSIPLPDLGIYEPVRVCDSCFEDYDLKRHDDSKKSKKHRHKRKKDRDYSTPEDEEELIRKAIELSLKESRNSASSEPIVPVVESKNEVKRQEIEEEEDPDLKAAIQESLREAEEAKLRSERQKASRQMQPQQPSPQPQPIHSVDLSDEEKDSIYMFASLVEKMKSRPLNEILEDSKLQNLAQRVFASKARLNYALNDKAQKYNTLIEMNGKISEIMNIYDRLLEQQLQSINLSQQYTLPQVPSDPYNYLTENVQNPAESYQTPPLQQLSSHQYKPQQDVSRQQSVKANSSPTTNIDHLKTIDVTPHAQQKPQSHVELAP

[5] = target: T5, Vps27 truncated at residue 485 (yeast, UniProt P40343 1-485)
T5 sequence: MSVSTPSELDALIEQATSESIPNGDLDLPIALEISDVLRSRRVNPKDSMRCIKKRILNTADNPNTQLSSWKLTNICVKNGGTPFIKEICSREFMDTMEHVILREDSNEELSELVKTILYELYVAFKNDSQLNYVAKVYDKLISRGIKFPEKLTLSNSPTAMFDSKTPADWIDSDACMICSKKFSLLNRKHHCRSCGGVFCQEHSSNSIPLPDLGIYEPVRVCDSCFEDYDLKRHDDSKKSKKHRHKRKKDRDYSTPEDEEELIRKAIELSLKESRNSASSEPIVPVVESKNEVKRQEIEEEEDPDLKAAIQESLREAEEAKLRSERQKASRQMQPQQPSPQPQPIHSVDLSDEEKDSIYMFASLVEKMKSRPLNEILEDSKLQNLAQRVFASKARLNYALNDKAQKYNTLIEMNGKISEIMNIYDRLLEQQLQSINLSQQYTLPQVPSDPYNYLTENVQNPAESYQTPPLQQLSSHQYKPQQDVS

percent of Vps23 co-immunoprecipitated [1]: ~10%
percent of Vps23 co-immunoprecipitated [2]: ~10%
percent of Vps23 co-immunoprecipitated [3]: ~10%
percent of Vps23 co-immunoprecipitated [4]: ~10%
percent of Vps23 co-immunoprecipitated [5]: ~10%
B1: Vps23-HA (natural protein)
chain: MSANGKISVPEAVVNWLFKVIQPIYNDGRTTFHDSLALLDNFHSLRPRTRVFTHSDGTPQLLLSIYGTISTGEDGSSPHSIPVIMWVPSMYPVKPPFISINLENFDMNTISSSLPIQEYIDSNGWIALPILHCWDPAAMNLIMVVQELMSLLHEPPQDQAPSLPPKPNTQLQQEQNTPPLPPKPKSPHLKPPLPPPPPPQPASNALDLMDMDNTDISPTNHHEMLQNLQTVVNELYREDVDYVADKILTRQTVMQESIARFHEIIAIDKNHLRAVEQAIEQTMHSLNAQIDVLTANRAKVQQFSSTSHVDDEDVNSIAVAKTDGLNQLYNLVAQDYALTDTIECLSRMLHRGTIPLDTFVKQGRELARQQFLVRWHIQRITSPLS
